In patent US20070172423A1, “Composition and method for modulating vasculogenesis for angiogenesis” (priority 1998, published 2007):

How the values were obtained:
human VEGFR-1 = target: T1, human VEGFR-1 (Homo sapiens, UniProt P17948); experiment: Binding to soluble VEGFR-1-Ig fusion protein; conditions: 35S-labeled protein in conditioned medium from 293 cells, precipitation with Ig-fusion protein
T1 construct: soluble Ig-fusion proteins containing the extracellular domains of human VEGFR-1, VEGFR-2 and VEGFR-3; made in house; host or cells: human 293 EBNA cells, transient expression
T1 sequence (P17948 27-758 limits assumed): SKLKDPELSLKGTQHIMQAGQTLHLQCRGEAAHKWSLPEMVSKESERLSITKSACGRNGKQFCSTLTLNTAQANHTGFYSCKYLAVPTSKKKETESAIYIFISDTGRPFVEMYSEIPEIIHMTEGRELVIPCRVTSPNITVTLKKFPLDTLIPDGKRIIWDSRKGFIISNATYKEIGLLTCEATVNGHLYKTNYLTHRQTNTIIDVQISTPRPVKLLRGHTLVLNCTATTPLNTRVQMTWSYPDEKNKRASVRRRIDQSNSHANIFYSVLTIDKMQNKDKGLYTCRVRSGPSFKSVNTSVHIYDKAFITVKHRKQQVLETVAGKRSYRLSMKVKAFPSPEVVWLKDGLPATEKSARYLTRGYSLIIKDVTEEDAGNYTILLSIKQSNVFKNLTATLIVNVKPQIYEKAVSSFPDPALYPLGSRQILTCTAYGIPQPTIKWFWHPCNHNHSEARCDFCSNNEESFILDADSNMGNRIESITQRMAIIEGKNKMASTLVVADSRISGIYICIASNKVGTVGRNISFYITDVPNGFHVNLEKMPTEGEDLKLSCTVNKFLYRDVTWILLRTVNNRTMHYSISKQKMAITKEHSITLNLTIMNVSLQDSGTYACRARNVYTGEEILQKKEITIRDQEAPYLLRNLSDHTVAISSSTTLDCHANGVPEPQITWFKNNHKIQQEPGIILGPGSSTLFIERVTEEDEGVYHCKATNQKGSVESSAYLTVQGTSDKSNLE
Method: To assess the interactions between full length and truncated PDGF-C and the VEGF receptors, full length and truncated PDGF-C were tested for their capacity to bind to soluble Ig-fusion proteins containing the extracellular domains of human VEGFR-1, VEGFR-2 and VEGFR-3 (Olofsson et al., Proc. Natl. Acad. Sci. USA, 1998 95:11709-11714). The fusion proteins, designated VEGFR-1-Ig, VEGFR-2-Ig and VEGFR-3-Ig, were transiently expressed in human 293 EBNA cells. All Ig fusion proteins were human VEGFRs. Cells were incubated for 24 hours after transfection, washed with Dulbecco's Modified Eagle Medium (DMEM) containing 0.2% bovine serum albumin and starved for 24 hours. The fusion proteins were then precipitated from the clarified conditioned medium using protein A-Sepharose beads (Pharmacia). The beads were combined with 100 microliters of 10× binding buffer (5% bovine serum albumin, 0.2% Tween 20 and 10 µg/ml heparin) and 900 microliter of conditioned medium from 293 cells that had been transfected with mammalian expression plasmids encoding full length or truncated PDGF-C or control vector, then metabolically labeled with ^35S-cysteine and methionine (Promix, Amersham) for 4 to 6 hours. […] Labeled proteins that were bound to the Ig-fusion proteins were analyzed by SDS-PAGE under reducing conditions. Radiolabeled proteins were detected using a phosphorimager analyzer.

hSMC [1] = experiment: Cell migration assay, hSMC; format: cell-based, human; conditions: wounded monolayer, 20 hours
Method: Cell migration assays were performed on growth arrested confluent HMVEC, BAEC or hSMC cells. Cell monolayers were wounded with a rubber policeman and washed with serum-free medium. Dishes were then incubated for 20 hours in serum-free medium containing VEGF165, PDGF-AA, (R&D Systems, Minneapolis USA) or PDGF-CC. Each assay included two dishes per condition and was repeated three times independently. Cells were photographed at 40× magnification, and migration percentage corresponding to the ratio between area of the cells and the total area of the wound (Biocom visiol@b 2000 version 4.52, San Diego). […] After 7 days, viable cells were counted using the cell Titer-glo luminescent cell viability assay. […] Two days later, cell numbers were counted and proliferation percentage calculated, using cells cultured in medium containing 10% serum as control. […] Aortic rings were analysed at day 9 of culturing. […]
(§1) The mitogenic and chemotactic effect of PDGF-CC was then tested on SMCs and perivascular fibroblast cells, and the effect of PDGF-CC was compared to that of VEGF and PDGF-AA in both cultured cells and the aortic ring assay (Blacher et al., Angiogenesis, 2001 4:133-42). […] In the aortic ring assay, we quantified the growth and emigration of perivascular fibroblasts from the intact vessel using computer-assisted image analysis after treatment with VEGF and different PDGFs at different concentrations. […]

hSMC [2] = experiment: hSMC proliferation assay; format: cell-based, human; conditions: two days, different concentrations
Method: Cell migration assays were performed on growth arrested confluent HMVEC, BAEC or hSMC cells. Cell monolayers were wounded with a rubber policeman and washed with serum-free medium. Dishes were then incubated for 20 hours in serum-free medium containing VEGF165, PDGF-AA, (R&D Systems, Minneapolis USA) or PDGF-CC. Each assay included two dishes per condition and was repeated three times independently. Cells were photographed at 40× magnification, and migration percentage corresponding to the ratio between area of the cells and the total area of the wound (Biocom visiol@b 2000 version 4.52, San Diego). For HMVEC proliferation assay, cells were seeded in 96-well plates (5 wells per condition), and incubated with VEGF, PDGF-AA, or PDGF-CC (50 ng/ml) after serum starvation. After 7 days, viable cells were counted using the cell Titer-glo luminescent cell viability assay. For NIH-3T3 and hSMC proliferation assay, cells cultured in 96-well plates were serum-starved overnight, followed by treatment with growth factors at different concentrations. Two days later, cell numbers were counted and proliferation percentage calculated, using cells cultured in medium containing 10% serum as control. Aortic ring assay was performed as described 51. […] Aortic rings were analysed at day 9 of culturing. […]

PDGFR-α = PDGFR-α activation in cultured hSMC and NIH-3T3 cells (immunoprecipitation, pTyr blot); format: cell-based; conditions: treated cultured hSMC and NIH-3T3 fibroblast cells
Method: RNase protection analysis (RPA) was performed according to the manufacturer's protocol (Ambion) to investigate gene expression at mRNA level. Riboprobes were prepared using RNA polymerase (Promega) and ^32P-UTP (Amersham). Mouse β-actin cDNA (250 bp, Ambion) was used as an internal control. For Western blot assay, subconfluent cells were rinsed with cold PBS supplemented with 5 µg/ml of antiprotease cocktail, lysed in RIPA buffer and analyzed on 10% acrylamide SDS PAGE in reducing condition. Two antibodies to PDGFR-α (rabbit polyclonal antibody, dilution: 1/500, Santa Cruz, sc431; and monoclonal peroxidase-labeled anti-rabbit antibody, dilution: 1/2500, Sigma, A-2074) were used for PDGFR-α protein detection. Membranes were developed using the Supersignal System (Pierce). […] The precipitants were analysed on SDS-PAGE, and immunoblotted using a monoclonal anti-phosphotyrosine antibody (Santa Cruz).
as §1

B1: PDGF-CC: recombinant human PDGF-CC core domain homodimer, residues 230-345 of full-length PDGF-C (SEQ ID NO:40), produced in baculovirus infected insect cells (protein)
chain: GRKSRVVDLNLLTEEVRLYSCTPRNFSVSIREELKRTDTIFWPGCLLVKRCGGNCACCLHNCNECQCVPSKVTKKYHEVLQLRPKTGVRGLHKSLTDVALEHHEECDCVCRGSTGG
modifications: homodimer; PDGF-C core domain
- interaction with VEGFR-1-Ig (human VEGFR-1): failed to show any interaction
- hSMC migration (hSMC [1]): stimulated
- proliferation of cultured hSMC cells (hSMC [2]): stimulated
- PDGFR-α activation (pTyr) (PDGFR-α): highly activated
